Test results reported in patent US9199028B2, “Use of entrained neutrophils to treat metastatic and micrometastatic disease in at risk patients” (MEMORIAL SLOAN-KETTERING CANCER CENTER, priority 2010, dated 2015).
“Also recorded” adds a separate entry of the source.

Legend:
4T1 cells = assay: In vitro killing assay: naïve mouse neutrophils co-cultured with luciferase labelled 4T1 cells in the presence of chemokines; type: cell-based; conditions: naïve mouse neutrophils co-cultured with 4T1 cells, chemokine 20 ng/ml, overnight
Text: Antibodies used for immunohistochemistry—MMP9, F4/80 and CCR2 (all from AbCam), Myeloperoxidase (Dako), Ly-6G and Cd11b (both from BD), and Cleaved Caspase 3 (Cell signalling). Antibodies used for western blotting—Actin (Sigma), CCL2 (AbCam) and CCL5 (R&D) p-SMAD2 (cell signalling). Antibodies used for FACS analysis FITC-Ly-6G, FITC-Cd11b, FITC-F4/80, FITC-Cd34 and FITC-c-Kit (all from BD) and VEGFR1-AP (R&D). Neutrophil Depletion Neutrophil depletion was achieved using daily IP injections of 12.5 μg Rat anti-Gr-1 antibody (BD) or Rat anti-Ly-6G antibody (BD) starting on day 3 post tumour engraftment. Starting on day 14, neutrophil depleting antibodies were administered twice daily. Control mice were injected with […] Rat isotype control (BD). Neutrophil depletion was monitored by manual blood differentials and FACS analysis. Flow Cytometry Peripheral blood was collected into EDTA-coated tubes, washed and resuspended in FACS buffer solution (PBS, 2% heat-inactivated FCS, 5 mM EDTA, and 0.02% sodium azide). The samples were blocked with […] and then incubated with fluorophore-conjugated antibodies. Erythrocytes were then lysed with FACS lysing solution (BD Biosciences) and the cell suspensions were analyzed on a FACSCalibur (BD Biosciences). Colony Formation Assay Female nude mice were orthotopically injected with 5×10^6 puromicin resistant 4T1 cells. On days 7 and 14 post tumour engraftment the mice were sacrificed and perfused with PBS. The lungs and livers were removed, washed with PBS and dissociated with Collagenase A (Roche). The single cell suspension was then plated onto puromicin containing media and selected for 14 day. Colonies were stained with Methylene-Blue and counted manually. Mouse Neutrophil Purification Whole blood was collected by cardiac puncture using heparinized (Sigma) syringe. The blood was diluted with 5 volumes of PBS containing 0.5% BSA and subjected to a discontinuous Histopaque (Sigma) gradient (1.077 and 1.119). Neutrophils were collected from the 1.077-1.119 interface, lymphocytes and monocytes collected from the plasma-1.077 interface. RBCs were eliminated by hypotonic lysis. The cells were washed twice with PBS-BSA and re-suspended in OptiMEM (Invitrogen) 0.5% FBS in a final concentration of 2×10^6 cells/ml. Neutrophil purity and viability were determined visually and were consistently >98%. Human Neutrophil Purification As part of a Memorial Sloan-Kettering Cancer Center institutionally approved protocol, blood samples (˜10 cc) were collected from healthy volunteers or from patients who were already having blood drawn for pre-surgical testing. Patients were consented accordingly as part of the approved protocol. […] Patients had either mastectomies or lumpectomies planned and had blood drawn prior to definitive surgical removal of their primary tumor or chemotherapy. Blood samples were transferred to the lab for analysis no more than 1 hour post-blood draw. Heparinzed blood (20 U/ml final) was mixed with an equal volume of Dextran 500 (3% in saline) and incubated 30 minutes at room temperature. The leukocyte-rich supernatant was layered on top of histopaque 1077 (Sigma) and centrifuged. Neutrophils, collected in the pellet fraction, were resuspended in 10 ml 0.2% NaCl for 30 seconds to remove contaminating erythrocytes. Isotonicity was restored by the addition of 10 ml 1.6% NaCl. Neutrophils were than washed three times in Hanks's balanced salt solution and resuspended in RPMI+FCS2%. In vitro Killing Assay Luciferase labelled cells (5,000/well) were plated on a 96-well, flat bottom white polystyrene tissue culture plate in OptiMEM 0.5% FBS (mouse neutrophils) or RPMI 2% FBS (human neutrophils). 4 hours later, purified neutrophils (100,000/well for mouse neutrophils and 5000 for human neutrophils) were added to the plated tumour cells and co-cultured overnight. […]

neutrophils = assay: In vivo rhG-CSF administration (neutrophil mobilization and lung sequestration); set-up: species or system mouse; conditions: mice
Method: Mice were orthotopically injected with 5×10^6 luciferase labelled 4T1 cells. 24 hours later Apocynin (2.4 g/liter) was administered in sugar sweetened drinking water. Control animals were treated with sugar sweetened water. Drinking water for both Apocynin treated and control mice were replaced every two days. Time-Lapse Microscopy 20,000 4T1 cells were labelled with CellTracker-Red (molecular Probes) according to the manufacturer instructions and plated on a chamber slide. 4 hours later, 400,000 neutrophils, isolated from 4T1 tumour-bearing Balb/c Ube-GFP mice, were added to the culture. Live imaging of Caspase 3 activation was done by labelling the tumour cells with the Caspase 3 substrate NucView 488 (Biotium) prior to the addition of GFP negative TENs. Images were taken every 10 minutes using the MetaMorph imaging system. Neutrophil Transfer Female nude mice were injected with 5×10^4 luciferase labelled 4T1 cells to the tail vein. 4 hours later, the mice were injected with 5×10^6 TENs or G-CSF mobilized neutrophils into the tail vein. Control mice were injected with vehicle. Formation of lung metastases was monitored using the IVIS-200 optical in vivo imaging system. Chemokine Administration rhG-CSF (Neupogen, Amgen) was administered daily (250 microg/kg/day) s.c. for 4 consecutive days. In vitro neutrophil stimulation—neutrophils were isolated from naïve mice and co-cultured with tumour cells in the presence of mCCL2, mCCL5 (both from R&D) or rhG-CSF (all at 20 ng/ml) or with TGF-Beta (R&D) (up to 200 pMolar). Human neutrophils purified from healthy volunteers were stimulated in vitro with hCCL2, hCCL5, hCCL3, hCCL4, hCXCL1, hCXCL12 and hCXCL16 (all from R&D at 100 ng/ml) or with rhG-CSF (20 ng/ml). Statistical Analysis For statistical analysis, the data is presented as mean±SEM and were analyses using Students t tests. Differences were considered significant when p<0.05.
In vivo administration of Apocynin: Mice were orthotopically injected with 5×10^6 luciferase labelled 4T1 cells. […] Formation of lung metastases was monitored using the IVIS-200 optical in vivo imaging system. […]

B1: rhG-CSF: recombinant methionyl human granulocyte colony-stimulating factor (Neupogen, Amgen) (protein, chains of the INN, looked up)
chain: MTPLGPASSLPQSFLLKCLEQVRKIQGDGAALQEKLCATYKLCHPEELVLLGHSLGIPWAPLSSCPSQALQLAGCLSQLHSGLFLYQGLLQALEGISPELGPTLDTLQLDVADFATTIWQQMEELGMAPALQPTQGAMPAFASAFQRRAGGVLVASHLQSFLEVSYRVLRHLAQP
modifications: N-terminal methionine
neutrophil mediated killing of 4T1 cells (tumor cell viability by luciferase activity) (4T1 cells): does not induce neutrophil mediated cell killing; also recorded: does not induce a cytotoxic neutrophil response; also recorded: did not induce a cytotoxic neutrophil response in vitro
neutrophil mediated killing of 4T1 cells (tumor cell viability by luciferase activity) (4T1 cells; listed as G-CSF): no significant effect on tumor-cell viability
circulating neutrophils after rhG-CSF administration (neutrophils; 250 μg/kg/day s.c.): significant increase in circulating and lung-associated neutrophils; also recorded: significant increase in circulating and lung-associated neutrophil numbers
increase of circulating neutrophil numbers (neutrophils; 250 ug/kg/day s.c. for 4 consecutive days): 2-4 fold
lung-associated neutrophils (Ly-6G or myeloperoxidase immunohistochemistry) (neutrophils; rhG-CSF administration): increase in lung-associated neutrophils
